Source: publication PMC5757175
Each block holds one molecule with its values, some of them ahead of it.

Assays:
[1] = biological target: myosin subfragment-1 (S1) from rabbit skeletal muscle (rabbit)
[2] = biological target: myosin subfragment-1 (S1) from rabbit skeletal muscle (rabbit); remark: listed apart in the source

apparent Kd of the inhibition of actin filament gliding velocity (myosin S1 fixed on nitrocellulose-coated coverslips, central domain titrated in the assay buffer; 2.2 uM halted gliding) [1]: 400 nM
Molecule: central domain of Mus musculus UNC-45B (domain or fragment)

apparent Kd of the inhibition of actin filament gliding velocity (myosin S1 fixed on nitrocellulose-coated coverslips, UNC-45B titrated in the assay buffer; 2.8 uM inhibited translocation completely) [2]: 200 nM
B1: full-length Mus musculus UNC-45B (natural protein)
chain: MAEAEAAQLKEEGNRHFQLQDYKAATKSYSQALKLTKDKALLATLYRNRAACGLKMESYAQAASDASRAIDINSADIKALYRRCQALEHLGKLDQAFKDVQRCATLEPRNQNFQETLRRLNTSIQEQLRVQFSTDSRVQTMFEILLNENSEADKREKAANNLIVLGREEAGAERIFQSNGVALLLQLMNTQRPELLLAAVRTLSGMCSGHRARATAILHAVRIDRICSLMALENEEMSLAVCNLLQAIIDSLSGEDKREHRGKEEALVLDTKKDLKQITSHLLDMLVSKKVSGQGRDQALNLLNKNVPRKDLSIHDNSRTIYVVDNGLRKILKVVGQVPDLPSCLPLTDNTRMLASILINKLYDDLRCDPERDHFRKICEEYITSKFDPQDMDKNVNAIQTVSGILQGPFDLGNQLLGMKGVMEMMVALCGSEREADQLVAVEALIHASTKLSRATFIITNGVTLLKQIYKTTKNEKIKIRTLVGLCKLGSAGGSDYGLRQFAEGSTEKLAKQCRKWLCNTAIDTRTRRWAVEGLAYLTLDADVKDDFVQDIPALQAMFELAKARTSDKTILYSVANTLVNCTNSYDVKEVVPELVQLAKFSKQHVPEEHPKDKKDFVDLRVKRLLKAGVISALACMVKADSAILTDQTKELLARVFLALCDNPKDRGTIVAQGGGKALIPLALEGTDVGKVKAAHGLAKIAAVSNPDIAFPGERVYEVVRPLVSLLDTQRDGLQNYEALLGLTNLSGRSDKLRQKIFKEKALPDIENYMFENHDQLRQAATECMCNMVLNKEVQERFLADGNDRLKLVVLLCGEDDHKLQNAAAGALAMLTAAHKKLCLKMTEVTTQWLEILQRLCLHDQLSVQHRGLVIAHNLLSADAELARKLVESELLEILTVVGKQEPDEKRAAVVQTARECLIKCMDYGFIKPVS
